Experimental data: patent US20130071428A1

What was measured:
[1] = molecular target: b1, neg contr. (Clostridium tetani); test: Tettox ELISA, negative control peptide; antibody source not named in Table 4
[2] = molecular target: Ala scan of …, # 4
[3] = molecular target: Ala scan of …, # 7
[4] = molecular target: Ala scan of …, # 15
[5] = molecular target: Ala scan of …, # 8
[6] = molecular target: Ala scan of …, # 17
[7] = molecular target: Ala scan of …, # 9
[8] = molecular target: Ala scan of …, # 13
[9] = molecular target: Ala scan of …, # 3
[10] = molecular target: Ala scan of …, # 11
[11] = molecular target: Ala scan of …, # 5
[12] = molecular target: Ala scan of …, # 2
[13] = molecular target: Ala scan of …, # 16
[14] = molecular target: Ala scan of …, # 19
[15] = molecular target: Ala scan of …, # 18
[16] = molecular target: … (18-mer) with Ahx-Lys(biotin) (Clostridium tetani)
[17] = molecular target: Ala scan of …, # 10
[18] = molecular target: Ala scan of …, # 14
[19] = molecular target: Ala scan of …, # 6
[20] = molecular target: Ala scan of …, # 12
[21] = molecular target: J Z F I G I T E L K K L E S K I N K V F (Clostridium tetani)
[22] = molecular target: J Z Z F I G I T E L K K L E S K I N K V F (Clostridium tetani)
[23] = molecular target: J Z Z SKFIGITELKKLESKINKVF (Clostridium tetani)
[24] = molecular target: J Z SKFIGITELKKLESKINKVF (Clostridium tetani)
[25] = molecular target: … (18-mer) with Ahx-Lys(biotin) (Clostridium tetani); test: Tettox ELISA, biotinylated peptide on streptavidin plate

Substance TetaQuin® (antibody) has an OD (column without a head) [1] of 0.12 OD, an ELISA OD [2] of 0.65 OD and an ELISA OD [3] of 1.24 OD. The ELISA OD [4] was 0.88 OD, the ELISA OD [5] was 0.9 OD and the ELISA OD [6] was 1.3 OD. It also gave an ELISA OD [7] of 0.62 OD, an ELISA OD [8] of 1.27 OD and an ELISA OD [9] of 1.04 OD. For the same substance, the ELISA OD [10] was 0.7 OD, the ELISA OD [11] was 0.3 OD and the ELISA OD [12] was 1.12 OD. It also gave an ELISA OD [13] of 1.37 OD, an ELISA OD [14] of 1.26 OD and an ELISA OD [15] of 1.24 OD. The ELISA OD [16] was 1.26 OD, the ELISA OD [17] was 1.06 OD and the ELISA OD [18] was 1.1 OD. It also gave an ELISA OD [19] of 0.38 OD, an ELISA OD [20] of 0.85 OD and an OD (column without a head) [21] of 0.17 OD. The OD (column without a head) [22] was 0.22 OD, the OD (column without a head) [23] was 0.47 OD and the OD (column without a head) [24] was 0.28 OD. It also gave an OD [25] of 2.3 OD.
